Results taken from patent publication US20250101113A1.

Biological target: human CD94 on cells (human) (UniProt Q13241)
Experiment: cell-based or functional assay

UniProt Q13241, sequence (Q13241 whole entry): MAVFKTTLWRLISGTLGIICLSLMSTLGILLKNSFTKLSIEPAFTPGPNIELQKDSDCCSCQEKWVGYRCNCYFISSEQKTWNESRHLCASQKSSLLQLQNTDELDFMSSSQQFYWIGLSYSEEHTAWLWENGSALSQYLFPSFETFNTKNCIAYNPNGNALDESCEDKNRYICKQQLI

- CD107a expression on IL-2-activated NK cells co-cultured with HLA-E-expressing SP-53 cells (% of cells): 16%
Substance: commercial murine anti-CD94 antibody (clone DX22 from Biolegend Catalog #305502)
